Experimental findings from PMC2775898 (The EMBO Journal, 2009) are described below.

In assay [1] the target is T1, Tiam2 PHCCEx domain (PH-CC-Ex region, residues 500-757) (mouse, UniProt Q6ZPF3 500-757).
T1 sequence (looked up): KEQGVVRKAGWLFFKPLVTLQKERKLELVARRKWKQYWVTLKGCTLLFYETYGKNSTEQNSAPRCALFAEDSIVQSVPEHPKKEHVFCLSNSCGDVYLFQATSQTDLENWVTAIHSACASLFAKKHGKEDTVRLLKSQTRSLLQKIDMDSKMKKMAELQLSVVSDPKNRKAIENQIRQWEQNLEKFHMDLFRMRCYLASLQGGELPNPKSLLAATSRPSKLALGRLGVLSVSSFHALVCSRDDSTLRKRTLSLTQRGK
Nature of the assay: SPR. (In general: SPR reads the build-up and loss of mass on a sensor chip optically.)

For assay [2], the target named is T2, Tiam1 PHCCEx domain (PH-CC-Ex region, residues 429-702) (mouse, UniProt Q60610 429-702).
T2 sequence (looked up): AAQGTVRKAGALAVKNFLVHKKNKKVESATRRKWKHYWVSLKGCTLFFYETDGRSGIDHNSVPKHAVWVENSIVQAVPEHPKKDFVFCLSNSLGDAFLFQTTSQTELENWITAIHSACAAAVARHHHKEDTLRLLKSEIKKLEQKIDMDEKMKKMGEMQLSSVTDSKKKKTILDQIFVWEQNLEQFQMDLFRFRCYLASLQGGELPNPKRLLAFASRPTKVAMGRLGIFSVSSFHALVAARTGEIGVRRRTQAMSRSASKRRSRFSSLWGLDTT
Put plainly: SPR.

The target of assay [3] is T3, Tiam2 PHCCEx domain, alanine mutant Lys650 (mouse, UniProt Q6ZPF3 500-757, alanine mutant Lys650).
T3 sequence (looked up): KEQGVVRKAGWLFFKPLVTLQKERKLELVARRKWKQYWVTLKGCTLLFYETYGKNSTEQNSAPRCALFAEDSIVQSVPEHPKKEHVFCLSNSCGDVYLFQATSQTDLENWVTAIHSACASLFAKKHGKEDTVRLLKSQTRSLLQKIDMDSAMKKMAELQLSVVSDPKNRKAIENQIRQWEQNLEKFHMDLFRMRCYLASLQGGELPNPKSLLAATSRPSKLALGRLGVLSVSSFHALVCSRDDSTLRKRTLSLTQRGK
Put plainly: SPR.

For assay [4], the target named is T4, Tiam2 PHCCEx domain, alanine mutant Lys653 (mouse, UniProt Q6ZPF3 500-757, alanine mutant Lys653).
T4 sequence (looked up): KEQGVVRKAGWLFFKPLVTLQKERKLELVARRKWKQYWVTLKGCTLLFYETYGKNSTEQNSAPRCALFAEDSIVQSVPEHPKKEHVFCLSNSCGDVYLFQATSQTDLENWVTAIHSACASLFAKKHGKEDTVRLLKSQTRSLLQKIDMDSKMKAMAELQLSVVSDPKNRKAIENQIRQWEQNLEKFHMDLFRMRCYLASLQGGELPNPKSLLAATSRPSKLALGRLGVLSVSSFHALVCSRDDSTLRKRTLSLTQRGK
Nature of the assay: SPR.

The target of assay [5] is T5, Tiam2 PHCCEx domain, alanine mutant Arg716 (R716A) (mouse, UniProt Q6ZPF3 500-757, R716A).
T5 sequence (looked up): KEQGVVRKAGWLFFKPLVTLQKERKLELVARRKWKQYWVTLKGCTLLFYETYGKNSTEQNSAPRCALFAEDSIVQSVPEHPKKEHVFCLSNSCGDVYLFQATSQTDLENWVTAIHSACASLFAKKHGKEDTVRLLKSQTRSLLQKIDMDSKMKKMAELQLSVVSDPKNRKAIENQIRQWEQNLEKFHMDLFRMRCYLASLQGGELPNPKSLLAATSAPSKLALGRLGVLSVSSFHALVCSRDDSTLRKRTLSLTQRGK
Put plainly: SPR.

Assay [6] concerns the target T6, Tiam2 PHCCEx domain, alanine mutant Lys627 (mouse, UniProt Q6ZPF3 500-757, alanine mutant Lys627).
T6 sequence (looked up): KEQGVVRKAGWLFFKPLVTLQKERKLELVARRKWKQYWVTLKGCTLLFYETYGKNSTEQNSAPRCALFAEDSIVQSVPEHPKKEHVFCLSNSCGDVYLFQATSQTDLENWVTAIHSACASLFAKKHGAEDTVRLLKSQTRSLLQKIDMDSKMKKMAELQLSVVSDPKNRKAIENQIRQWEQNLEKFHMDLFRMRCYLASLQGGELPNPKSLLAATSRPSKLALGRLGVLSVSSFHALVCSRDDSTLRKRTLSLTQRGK
Nature of the assay: SPR.

Assay [7] concerns the target T7, Tiam2 PHCCEx domain, alanine mutant Arg693 (R693A) (mouse, UniProt Q6ZPF3 500-757, R693A).
T7 sequence (looked up): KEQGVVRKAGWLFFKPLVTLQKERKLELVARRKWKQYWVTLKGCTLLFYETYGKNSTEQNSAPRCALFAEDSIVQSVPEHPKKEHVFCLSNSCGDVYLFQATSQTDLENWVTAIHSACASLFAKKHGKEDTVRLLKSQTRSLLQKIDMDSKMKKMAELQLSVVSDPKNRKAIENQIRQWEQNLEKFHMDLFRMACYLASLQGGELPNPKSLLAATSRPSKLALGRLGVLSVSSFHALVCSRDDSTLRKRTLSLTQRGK
Nature of the assay: SPR.

Assay [8] concerns the target T8, Tiam2 PHCCEx domain, alanine mutant Arg691 (mouse, UniProt Q6ZPF3 500-757, alanine mutant Arg691).
T8 sequence (looked up): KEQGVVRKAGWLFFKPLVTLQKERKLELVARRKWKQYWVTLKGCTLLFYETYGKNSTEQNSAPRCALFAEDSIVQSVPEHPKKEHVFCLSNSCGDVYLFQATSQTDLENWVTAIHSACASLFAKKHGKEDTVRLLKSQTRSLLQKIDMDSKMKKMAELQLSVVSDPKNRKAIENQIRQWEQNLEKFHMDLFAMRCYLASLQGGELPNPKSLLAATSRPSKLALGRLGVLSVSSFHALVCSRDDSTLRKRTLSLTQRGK
Nature of the assay: SPR.

Assay [9] has as its target T9, Tiam2 PHCCEx domain, alanine mutant Arg632 (mouse, UniProt Q6ZPF3 500-757, alanine mutant Arg632).
T9 sequence (looked up): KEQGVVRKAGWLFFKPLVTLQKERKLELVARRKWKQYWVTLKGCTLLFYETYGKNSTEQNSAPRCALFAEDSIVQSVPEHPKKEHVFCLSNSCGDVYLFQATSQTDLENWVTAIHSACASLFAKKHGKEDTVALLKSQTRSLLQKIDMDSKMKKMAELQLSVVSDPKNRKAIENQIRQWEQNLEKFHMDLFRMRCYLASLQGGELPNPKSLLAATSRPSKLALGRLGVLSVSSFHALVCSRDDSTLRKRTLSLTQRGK
Put plainly: SPR.

Assay [10] concerns the target T10, Tiam2 PHCCEx domain, alanine mutant Lys624 (mouse, UniProt Q6ZPF3 500-757, alanine mutant Lys624).
T10 sequence (looked up): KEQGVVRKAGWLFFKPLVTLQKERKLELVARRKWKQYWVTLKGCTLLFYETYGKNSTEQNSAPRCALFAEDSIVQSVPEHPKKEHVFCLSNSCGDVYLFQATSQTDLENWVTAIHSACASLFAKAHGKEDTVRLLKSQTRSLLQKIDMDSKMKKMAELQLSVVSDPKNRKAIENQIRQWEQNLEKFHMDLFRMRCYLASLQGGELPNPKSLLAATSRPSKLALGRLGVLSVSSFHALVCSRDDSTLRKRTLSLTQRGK
Put plainly: SPR.

Assay [11] addresses GFP-tagged full-length Par3 (UniProt Q9Z340 1-1337). Nature of the assay: co-IP.

Where no end group is shown, it is not given here. The star is where a group is joined. Biotin = O=C1N[C@H]2[C@H](CS[C@H]2CCCCC(=O)*)N1

Chain of GFP-tagged full-length Par3 (Q9Z340 whole entry): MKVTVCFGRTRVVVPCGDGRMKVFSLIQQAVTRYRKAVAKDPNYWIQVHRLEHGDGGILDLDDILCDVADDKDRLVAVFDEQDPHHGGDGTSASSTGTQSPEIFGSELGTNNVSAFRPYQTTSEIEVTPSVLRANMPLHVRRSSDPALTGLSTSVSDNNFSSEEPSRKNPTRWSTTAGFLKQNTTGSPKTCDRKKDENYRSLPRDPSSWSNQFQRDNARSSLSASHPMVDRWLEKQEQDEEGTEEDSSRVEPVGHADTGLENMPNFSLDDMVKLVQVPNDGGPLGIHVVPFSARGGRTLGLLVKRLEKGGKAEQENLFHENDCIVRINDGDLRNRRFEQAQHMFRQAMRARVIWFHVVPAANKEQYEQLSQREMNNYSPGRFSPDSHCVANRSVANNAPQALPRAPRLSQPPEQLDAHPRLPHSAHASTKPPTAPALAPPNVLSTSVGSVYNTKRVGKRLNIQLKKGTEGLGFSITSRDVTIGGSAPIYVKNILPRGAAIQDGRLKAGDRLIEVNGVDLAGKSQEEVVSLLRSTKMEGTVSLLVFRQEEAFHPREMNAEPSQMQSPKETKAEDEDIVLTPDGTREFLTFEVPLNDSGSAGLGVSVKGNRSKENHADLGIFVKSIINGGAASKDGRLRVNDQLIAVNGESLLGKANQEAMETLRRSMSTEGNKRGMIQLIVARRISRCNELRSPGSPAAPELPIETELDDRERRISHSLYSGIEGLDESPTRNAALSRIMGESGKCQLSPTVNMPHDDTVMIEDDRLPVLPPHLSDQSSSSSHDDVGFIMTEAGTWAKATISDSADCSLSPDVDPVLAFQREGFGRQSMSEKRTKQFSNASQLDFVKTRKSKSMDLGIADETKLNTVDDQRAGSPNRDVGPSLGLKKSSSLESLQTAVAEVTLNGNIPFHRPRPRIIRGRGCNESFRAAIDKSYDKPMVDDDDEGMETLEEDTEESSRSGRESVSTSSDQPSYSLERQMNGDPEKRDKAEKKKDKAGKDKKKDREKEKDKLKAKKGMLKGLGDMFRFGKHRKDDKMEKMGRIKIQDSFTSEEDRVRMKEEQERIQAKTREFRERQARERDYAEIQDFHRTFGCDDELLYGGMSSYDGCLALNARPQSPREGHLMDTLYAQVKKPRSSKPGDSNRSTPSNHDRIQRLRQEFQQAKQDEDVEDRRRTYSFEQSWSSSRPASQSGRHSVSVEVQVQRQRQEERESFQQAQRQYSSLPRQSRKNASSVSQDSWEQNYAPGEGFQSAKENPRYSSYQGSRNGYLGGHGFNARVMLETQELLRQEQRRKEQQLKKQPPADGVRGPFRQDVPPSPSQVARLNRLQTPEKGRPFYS

As a reminder, the Kd is the concentration at which binding is half-saturated. Low values mean tighter binding, high ones weaker binding. As to Biotin-SQEMVHLVNKEPSETPDQCMTADE (peptide, UniProt P15379-2 327-350, looked up) [CD44 acidic peptide comprising 24 residues (327-350)], binding in assay [1] was put at a Kd of 0.92 µM. For the same molecule, the binding result in assay [2], in [3], in [4], in [5], in [6] and in [7] was “binds” throughout. Besides, the binding result in assay [8], in [9] and in assay [10] was “binds” in each case.
Regarding KPMVDDDDEGMETLEEDTEESSRSGRESVS (peptide, UniProt Q99NH2 931-960, looked up, biotin on the N-terminus) [Par3 acidic cluster peptide (mouse residues 931-960)], in assay [1], the dissociation constant (Kd) turned out to be 0.38 µM.

B1: NMDAR loop I peptide (residues 591-610) (peptide)
peptide: not shown
modifications: biotin on the N-terminus
Take B1: in assay [2], the binding result is on record as “binds”.

B2: HA-tagged full-length Tiam1 with a double mutation (R622A and R645A) (natural protein, UniProt Q60610 1-1591, looked up)
chain: MGNAESQNVDHEFYGEKHASLGRKHTSRSLRLSHKTRRTRHASSGKAIHRNSEVSTRSSSTPSIPQSLAENGLEPFSQEGALDDFGDPIWVDRVDMGLRPVSYTDSSVTPSVDGSIVLTAASVQSMPDSEESRLYGDDATYLAEGGRRQCPYTSNGPTFMETASFKKKRSKSADIWREDSLEFSLSDLSQEHLTSNEEILGSAEEKDCEEARGMETEASPRQLSTCQRANSLGDLYAQKNSGVKANGGPRNRFSSYCRNLVSDIPDLAKHKMPPAAAEETPPYSNYNTLPCRKSHCLSEGATNPQISLSKSMQGRRAKTTQDVNTGEGSEFADSGIEGATTDTDLLSRRSNATNSSYSPPTGRAFVGSDSGSSSTGDRARQGVYENFRRELEMSTTNSESLEEAGSAHSDEQSSGTLSSPGQSDILLTAAQGTVRKAGALAVKNFLVHKKNKKVESATRRKWKHYWVSLKGCTLFFYETDGRSGIDHNSVPKHAVWVENSIVQAVPEHPKKDFVFCLSNSLGDAFLFQTTSQTELENWITAIHSACAAAVARHHHKEDTLRLLKSEIKKLEQKIDMDEKMKKMGEMQLSSVTDSKKKKTILDQIFVWEQNLEQFQMDLFRFACYLASLQGGELPNPKRLLAFASAPTKVAMGRLGIFSVSSFHALVAARTGEIGVRRRTQAMSRSASKRRSRFSSLWGLDTTSKKKQGRPTINQVFGEGTDAVKRSLEGIFDDTVPDGKREKEVVLPSVHQHNPDCDIWVHEYFTPSWFCLPNNQPALTVVRPGDTARDTLELICKTHQLDHSAHYLRLKFLMENRVQFYIPQPEEDIYELLYKEIEICPKVTQNIHIEKSDAAADNYGFLLSSVDEDGIRRLYVNSVKETGLASKKGLKAGDEILEINNRAAGTLNSSMLKDFLSQPSLGLLVRTYPEPEGGVELLENPPHRVDGPVDLGESPLAFLTSNPGHSLSSEQGSSAETAPEEGEGPDLESSDETDHSSKSTEQVAAFCRSLHEMSPSDSSPSPQDATSPQLATTRQLSDADKLRKVICELLETERTYVKDLNCLMERYLKPLQKETFLTQDELDVLFGNLTEMVEFQVEFLKTLEDGVRLVPDLEKLEKVDQFKKVLFSLGGSFLYYADRFKLYSAFCASHTKVPKVLVKAKTDTAFKAFLDAQNPRQQHSSTLESYLIKPIQRVLKYPLLLRELFALTDAESEEHYHLDVAIKTMNKVASHINEMQKIHEEFGAVFDQLIAEQTGEKKEVADLSMGDLLLHTSVIWLNPPASLGKWKKEPELAAFVFKTAVVLVYKDGSKQKKKLVGSHRLSIYEEWDPFRFRHMIPTEALQVRALPSADAEANAVCEIVHVKSESEGRPERVFHLCCSSPESRKDFLKSVHSILRDKHRRQLLKTESLPSAQQYVPFGGKRLCALKGARPAMSRAVSAPSKSLGRRRRRLARNRFTIDSDAISASSPEKEPQQPAGGGDTDRWVEEQFDLAQYEEQDDIKETDILSDDDEFCESLKGASVDRDLQEQLQAASISQRARGRRTLDSHASRMTQLKKQAALSGINGGLESASEEVIWVRREDFAPSRKLNTEI
For B2, the “Par3 binding relative to wild-type Tiam1” value in assay [11] was ~65%.
